Test results reported in patent US20100260765A1 (AstraZeneca / MedImmune, published 2010).

Columns and labels:
[1] = biological target: KDR endogenously expressed on human umbilical vein endothelial cells (HUVEC) (human, UniProt P35968 20-1356); test: cell-based or functional assay
[2] = biological target: T1, soluble KDR extracellular domain (ECD) (Calbiochem) (human, UniProt P35968 20-764); test: High Antigen ELISA, KDR coat 500 ng/mL, supernatant 1:25
T1 construct: extracellular domain; Bought protein; also called KDR-ECD; VEGF Receptor 2 D1-7, Cat. #676490
Protocol: (§1) ELISA plates were coated with a greater amount of KDR (at 500 ng/mL) in comparison with the Limited Antigen Quantitation assay described below. Sample containing antibody (Ab) was titrated on the KDR-coated ELISA plates and was incubated overnight at 4° C. to allow Ab binding to approach equilibrium. Titration of Ab in sample covered a dilution range of 1:25 to 1:18,225. A standard curve of KDR-specific antibody of known concentration was used to define the linear range of the assay. Data within the linear range were used to derive the relative concentration of KDR-specific Ab in each titrated sample. The high KDR concentration and the overnight incubation limited the effect of Ab affinity, allowing quantitation of the relative amount of KDR-specific Ab present in each sample.

[3] = biological target: T1, soluble KDR extracellular domain (ECD) …; test: High Antigen ELISA, KDR coat 500 ng/mL, supernatant 1:75
Protocol: as §1

[4] = biological target: T1, soluble KDR extracellular domain (ECD) …; test: High Antigen ELISA, KDR coat 500 ng/mL, supernatant 1:225
Protocol: as §1

[5] = biological target: T1, soluble KDR extracellular domain (ECD) …; test: High Antigen ELISA, KDR coat 500 ng/mL, supernatant 1:675
Protocol: as §1

[6] = biological target: T1, soluble KDR extracellular domain (ECD) …; test: High Antigen ELISA, KDR coat 500 ng/mL, supernatant 1:2025
Protocol: as §1

[7] = biological target: T1, soluble KDR extracellular domain (ECD) …; test: High Antigen ELISA, KDR coat 500 ng/mL, supernatant 1:6075
Protocol: as §1

[8] = biological target: T1, soluble KDR extracellular domain (ECD) …; test: Limited Antigen ELISA, KDR coat 25 ng/mL, supernatant 1:25
Protocol: (§2) Samples containing one concentration of antibody (Ab) (1:25 dilution) were incubated overnight to allow Ab binding to approach equilibrium. The low antigen concentration limited the effect of antibody concentration, allowing ranking of the antibodies based on their relative affinity.

[9] = biological target: T1, soluble KDR extracellular domain (ECD) …; test: Limited Antigen ELISA, KDR coat 50 ng/mL, supernatant 1:25
Protocol: as §2

[10] = biological target: T1, soluble KDR extracellular domain (ECD) …; test: High Antigen ELISA, KDR coat 500 ng/mL, supernatant 1:18,225
Protocol: as §1

[11] = biological target: T1, soluble KDR extracellular domain (ECD) …; test: Limited Antigen ELISA, KDR coat 12.5 ng/mL, supernatant 1:25
Protocol: as §2

[12] = biological target: T1, soluble KDR extracellular domain (ECD) …; test: Limited Antigen ELISA, KDR coat 6.25 ng/mL, supernatant 1:25
Protocol: as §2

[13] = biological target: T1, soluble KDR extracellular domain (ECD) …; test: Limited Antigen ELISA, KDR coat 3.125 ng/mL, supernatant 1:25
Protocol: as §2

KDR [14] = biological target: T2, KDR (human, UniProt P35968 20-1356); test: cell-based or functional assay
KDR [15] = biological target: T2, KDR; test: cell-based or functional assay; remark: listed apart in the source
KDR [16] = biological target: T2, KDR; test: cell-based or functional assay; remark: listed apart in the source
KDR [17] = biological target: T2, KDR; test: cell-based or functional assay; remark: listed apart in the source
KDR [18] = biological target: T2, KDR; test: cell-based or functional assay; remark: listed apart in the source

T2 sequence (P35968 20-1356): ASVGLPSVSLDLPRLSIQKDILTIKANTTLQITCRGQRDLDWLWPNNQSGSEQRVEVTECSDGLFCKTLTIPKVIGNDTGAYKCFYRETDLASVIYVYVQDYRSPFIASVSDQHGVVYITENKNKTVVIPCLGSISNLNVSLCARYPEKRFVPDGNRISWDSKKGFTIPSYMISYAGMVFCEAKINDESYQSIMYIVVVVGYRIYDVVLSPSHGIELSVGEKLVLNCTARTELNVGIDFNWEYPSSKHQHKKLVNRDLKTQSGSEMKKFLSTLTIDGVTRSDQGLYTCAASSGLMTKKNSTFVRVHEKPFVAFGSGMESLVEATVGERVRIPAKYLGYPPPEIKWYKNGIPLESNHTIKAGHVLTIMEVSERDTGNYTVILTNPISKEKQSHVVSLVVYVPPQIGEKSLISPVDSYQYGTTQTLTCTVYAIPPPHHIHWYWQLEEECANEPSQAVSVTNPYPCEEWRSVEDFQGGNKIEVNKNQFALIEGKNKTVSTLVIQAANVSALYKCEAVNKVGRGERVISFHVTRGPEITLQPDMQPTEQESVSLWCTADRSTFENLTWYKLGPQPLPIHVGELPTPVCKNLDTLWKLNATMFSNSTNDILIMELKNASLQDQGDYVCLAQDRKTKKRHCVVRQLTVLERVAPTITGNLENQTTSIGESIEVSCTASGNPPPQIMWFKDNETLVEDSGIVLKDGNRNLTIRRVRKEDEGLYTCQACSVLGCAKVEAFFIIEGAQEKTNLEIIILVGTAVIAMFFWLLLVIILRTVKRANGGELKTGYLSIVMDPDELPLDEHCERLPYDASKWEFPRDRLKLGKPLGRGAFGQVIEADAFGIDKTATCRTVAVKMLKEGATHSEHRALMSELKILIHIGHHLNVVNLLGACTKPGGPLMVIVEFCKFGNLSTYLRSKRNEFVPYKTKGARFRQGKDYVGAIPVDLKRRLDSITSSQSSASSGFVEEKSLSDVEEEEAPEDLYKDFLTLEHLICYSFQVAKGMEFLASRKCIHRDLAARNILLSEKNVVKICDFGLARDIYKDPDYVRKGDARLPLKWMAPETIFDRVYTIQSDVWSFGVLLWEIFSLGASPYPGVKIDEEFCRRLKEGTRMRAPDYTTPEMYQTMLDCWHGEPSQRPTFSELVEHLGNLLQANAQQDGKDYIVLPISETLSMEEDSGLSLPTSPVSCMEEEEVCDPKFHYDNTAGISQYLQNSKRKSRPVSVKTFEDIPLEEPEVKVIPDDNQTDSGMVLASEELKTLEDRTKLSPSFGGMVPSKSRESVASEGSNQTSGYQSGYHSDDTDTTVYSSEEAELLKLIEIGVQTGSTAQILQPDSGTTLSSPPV
Chain of KDR endogenously expressed on human umbilical vein endothelial cells (HUVEC) (P35968 20-1356): as above
T1 sequence (P35968 20-764): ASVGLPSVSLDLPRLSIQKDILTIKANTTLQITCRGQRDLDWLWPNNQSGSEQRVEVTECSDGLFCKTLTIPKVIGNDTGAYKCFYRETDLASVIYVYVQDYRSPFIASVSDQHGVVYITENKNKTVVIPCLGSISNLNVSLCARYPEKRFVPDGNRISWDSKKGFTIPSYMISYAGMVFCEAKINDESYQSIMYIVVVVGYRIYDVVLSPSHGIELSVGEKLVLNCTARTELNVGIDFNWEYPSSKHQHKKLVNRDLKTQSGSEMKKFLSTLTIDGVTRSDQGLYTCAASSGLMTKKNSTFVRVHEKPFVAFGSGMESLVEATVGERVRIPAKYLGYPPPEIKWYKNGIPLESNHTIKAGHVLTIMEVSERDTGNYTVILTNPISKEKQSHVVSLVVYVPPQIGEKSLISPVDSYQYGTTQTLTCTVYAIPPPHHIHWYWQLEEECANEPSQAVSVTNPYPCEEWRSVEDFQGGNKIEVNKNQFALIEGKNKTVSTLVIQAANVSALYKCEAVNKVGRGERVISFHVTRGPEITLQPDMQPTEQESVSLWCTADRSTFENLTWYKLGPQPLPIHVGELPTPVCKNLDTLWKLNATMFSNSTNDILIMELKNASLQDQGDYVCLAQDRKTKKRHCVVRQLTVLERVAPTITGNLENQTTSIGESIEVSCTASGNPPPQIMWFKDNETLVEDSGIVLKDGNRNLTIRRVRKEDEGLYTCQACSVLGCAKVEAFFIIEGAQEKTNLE

| Binder | VEGF-E-mediated Survival % Inhibition (Average) [1] [%] | VEGF-E-mediated Survival % Inhibition (n = 1) [1] [%] | VEGF-E-mediated Survival % Inhibition (n = 2) [1] [%] | ELISA reading [2] | ELISA reading [3] | ELISA reading [4] | ELISA reading [5] | ELISA reading [6] | ELISA reading [7] | ELISA reading [8] | ELISA reading [9] | ELISA reading [10] | ELISA reading [11] | ELISA reading [12] | ELISA reading [13] | other results |
| --- | --- | --- | --- | --- | --- | --- | --- | --- | --- | --- | --- | --- | --- | --- | --- | --- |
| 21A1 (antibody, V domains shown, Fully human mAb from XenoMouse hybridoma, tested as hybridoma supernatant) VH: QVQLVESGGGLVKPGGSLRLSCAASGFTFSDYYMSWIRQAPGKGLEWVSYISNSGITIYYADSVKGRFTISRDNAKNSLYLQMNSLRAGDTAVYYCAREEWYSSRWYRNFDYWGQGTLVTVSS VL: DIQMTQFSSSLSASVGDRVTITCRASQSISRYLNWYQQKPGKAPKLLIYAASSLQSGVPSRFNGSGSGTDFTLTISSLQPEDFATYYCQQSYSAPLTFGGGTKVEIK | 42 | 45 | 40 | 4.45 | 4.43 | 4.14 | 3.36 | 1.66 | 0.56 | 1.47 | 2.65 | 0.25 | 0.81 | 0.38 | 0.23 | – |
| 21H6 (antibody, V domains shown, Fully human mAb from XenoMouse hybridoma, tested as hybridoma supernatant) VH: QVQLVESGGGLVKPGGSLRLSCAASGFTFSDYYMSWIRQAPGKGLEWVSYISNSGITIYYADSVKGRFTISRDNAKNSLYLQMNSLRAGDTAVYYCAREEWYSSRWYRNFDYWGQGTLVTVSS VL: DIQMTQFSSSLSASVGDRVTITCRASQSISRYLNWYQQKPGKAPKLLIYAASSLQSGVPSRFNGSGSGTDFTLTISSLQPEDFATYYCQQSYSAPLTFGGGTKVEIK | 55 | 56 | 53 | 6 | 4.19 | 5.57 | 4.02 | 2.91 | 1.17 | 0.97 | 1.83 | 0.54 | 0.52 | 0.23 | 0.15 | – |
| 24C9 (antibody, V domains shown) VH: EVQLVESGGGLVKPGGSLRLSCAASGFTFSTYSMNWVRQAPGKGLEWVSFISGRSSYIYYADSVKGRFTISRDNAKNSLYLQMNSLRAEDTAVYYCSKDDWFEELWGQGTLVTVSS VL: DIQMTQSPSSLSASVGDRVTITCRASQGIRNDLGWYQQKPGKAPKRLIYATFSLQSGVPSRFSGSGSGTEFTLTISSLQPEDFATYYCLQHNRYPWTFGQGTKVEIK | – | – | – | – | – | – | – | – | – | – | – | – | – | – | – | Activity at 133 nM (% Inhibition), 1-hour Pre-incubation at 4° C., Average (KDR [14]): 81%; Activity at 133 nM (% Inhibition), 1-hour Pre-incubation at 4° C., N = 1 (KDR [14]): 81%; Activity at 133 nM (% Inhibition), 24-hour Pre-incubation at 37° C., Average (KDR [15]): 46%; Activity at 133 nM (% Inhibition), 24-hour Pre-incubation at 37° C., N = 1 (KDR [15]): 46%; % of Max VEGF KDR pTyr Activity (at 133 nM antibody concentration), Average (KDR [16]): 13%; % of Max VEGF KDR pTyr Activity (at 133 nM antibody concentration), N = 1 (KDR [16]): 13%; Activity at 133 nM Antibody Concentration (% Survival Inhibition), Average (KDR [17]): 57%; Activity at 133 nM Antibody Concentration (% Survival Inhibition), N = 1 (KDR [17]): 57%; % Inhibition of VEGF165-mediated 6-keto Prostaglandin F1α release at 133 nM Antibody Concentration, Average (KDR [18]): 91%; % Inhibition of VEGF165-mediated 6-keto Prostaglandin F1α release at 133 nM Antibody Concentration, N = 1 (KDR [18]): 91% |
| 33E1 (antibody, V domains shown) VH: QVQLQESGPGLVKPSQTLSLTCTVSGGSISSGDHYWSWIRQHPGKGLEWIGHIYYSGSTDYNPSLKSRVTISVDTSKNHFSLKLNSVTAADTAVYYCARTNSSSWSDWYFDLWGRGTLVTVSS VL: DIVMTQSPDSLAVSLGERATINCKSSQSILYSSNNKNYLAWYQRKPGQPPILLIHWASTRESGVPDRFSGSGSRTDFTLTISSLQAEDVAVYYCQQYFITPWTFGQGTKVEIK | – | – | – | – | – | – | – | – | – | – | – | – | – | – | – | Activity at 133 nM (% Inhibition), 1-hour Pre-incubation at 4° C., Average (KDR [14]): 77%; Activity at 133 nM (% Inhibition), 1-hour Pre-incubation at 4° C., N = 1 (KDR [14]): 78%; Activity at 133 nM (% Inhibition), 1-hour Pre-incubation at 4° C., N = 2 (KDR [14]): 75%; Activity at 133 nM (% Inhibition), 24-hour Pre-incubation at 37° C., Average (KDR [15]): 77%; Activity at 133 nM (% Inhibition), 24-hour Pre-incubation at 37° C., N = 1 (KDR [15]): 85%; Activity at 133 nM (% Inhibition), 24-hour Pre-incubation at 37° C., N = 2 (KDR [15]): 68%; % of Max VEGF KDR pTyr Activity (at 133 nM antibody concentration), Average (KDR [16]): 8%; % of Max VEGF KDR pTyr Activity (at 133 nM antibody concentration), N = 1 (KDR [16]): 5%; % of Max VEGF KDR pTyr Activity (at 133 nM antibody concentration), N = 2 (KDR [16]): 10%; Activity at 133 nM Antibody Concentration (% Survival Inhibition), Average (KDR [17]): 92%; Activity at 133 nM Antibody Concentration (% Survival Inhibition), N = 1 (KDR [17]): 86%; Activity at 133 nM Antibody Concentration (% Survival Inhibition), N = 2 (KDR [17]): 97%; % Inhibition of VEGF165-mediated 6-keto Prostaglandin F1α release at 133 nM Antibody Concentration, Average (KDR [18]): 113%; % Inhibition of VEGF165-mediated 6-keto Prostaglandin F1α release at 133 nM Antibody Concentration, N = 1 (KDR [18]): 128%; % Inhibition of VEGF165-mediated 6-keto Prostaglandin F1α release at 133 nM Antibody Concentration, N = 2 (KDR [18]): 98% |
| 1G6 (antibody, V domains shown, Fully human mAb from XenoMouse hybridoma, tested as hybridoma supernatant) VH: EVQLLESGGGLVQPGGSLRLSCAASGFTFSSYAMSWVRQAPGKGLEWVSAISGGGGNTYYADSVKGRFTISRDNSKNTLYLQMNSLRAEDTAVYYCSKVATDYWGQGTLVTVSS VL: QPVLTQSSSASASLGSSVKLTCTLSSGHSSYIIAWHQQQPGKAPRYLMKLEGSGSYNKGSGVPDRFSGSSSGADRYLTISNLQFEDEADYYCETWDSYTVVFGGGTKLTVL | 2 | -2 | 6 | 6 | 6 | 4.49 | 2.24 | 0.69 | 0.34 | 0.65 | 1.38 | 0.26 | 0.32 | 0.2 | 0.12 | – |
| 21H9 (antibody, V domains shown, Fully human mAb from XenoMouse hybridoma, tested as hybridoma supernatant) VH: QVPLVESGGGVVQPGRSLRLSCAASGFTFSSYGMHWVRQAPGKGLEWVAVIWYDGSNKYYADSVQGRFTISRDNSKNTLYLQMNSLRAEDTAVYYCARGVTMVRGLIIARYYYGLDVWGQGTTVTVSS VL: DIVMTQTPLSSPVTFGQPASISCRSSQSLVHSDGNTYLSWLQQRPGQPPRLLIYKISNRFFGVPDRFSGSGAGTDFTLKISRVEAEDVGLYYCMQSTQFPLTFGGGTKVEIK | -1 | -3 | 1 | 6 | 4.34 | 3.41 | 1.56 | 0.7 | 0.26 | 1.46 | 2.28 | 0.12 | 0.82 | 0.39 | 0.22 | – |
| 30D7 (antibody, V domains shown, Fully human mAb from XenoMouse hybridoma, tested as hybridoma supernatant) VH: QVPLVESGGGVVQPGRSLRLSCAASGFTFSSYGMHWVRQAPGKGLEWVAVIWYDGSNKYYADSVKGRFTISRDNSKNTLYLQMNSLRAEDTAVYYCARGVTMVRGVIIARYYYGLDVWGQGTTVTVSS VL: DIVMTQTPLSSPVTLGQPASISCRSSQSLVHSDGNTYLSWLQQRPGQPPRLLIYKISNRFFGVPDRFSGSGAGTDFTLKIGRVEAEDVGLYYCMQSTQFPLTFGGGTKVEIK | -24 | -27 | -22 | 4.66 | 5.09 | 6 | 4.24 | 2.79 | 1.02 | 1.51 | 2.93 | 0.82 | 0.79 | 0.48 | 0.27 | – |
